Results taken from patent publication US20090149339A1 (published 2009).
Ends that are not written are not given here. * marks the point of attachment. Biotin = O=C1N[C@H]2[C@H](CS[C@H]2CCCCC(=O)*)N1

Biological target: T1, GST-NeDLG PDZ domain fusion protein (presynaptic protein sao102, neuroendocrine-dlg; PDZ domains 1-2 of 3) (UniProt P08515 1-218 = GST)
T1 construct: also called NeDLG1
Test: G assay

Binder	binding result
Biotin-KKGTYLTDETHREVKFTSL [CD46 (form 1) C-terminal PL peptide AA10L, biotinylated]	binds

Biological target: GST-AF6 PDZ domain fusion protein (af-6 protein AA985-1077; PDZ domain 1 of 1) (UniProt P08515 1-218 = GST)
Test: A/G assays

GST-AF6 PDZ domain fusion protein (af-6 protein AA985-1077; PDZ domain 1 of 1), sequence (P08515 1-218, tags or fused parts left off): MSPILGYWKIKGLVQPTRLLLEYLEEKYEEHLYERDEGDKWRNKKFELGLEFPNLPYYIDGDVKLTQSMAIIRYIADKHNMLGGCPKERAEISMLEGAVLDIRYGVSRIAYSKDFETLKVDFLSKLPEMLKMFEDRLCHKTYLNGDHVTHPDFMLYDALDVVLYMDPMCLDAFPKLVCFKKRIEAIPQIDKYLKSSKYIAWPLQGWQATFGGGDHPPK

Binder	binding result
Biotin-PYGTAMEKAQLKPPATSDA [CD49E (alpha-4) C-terminal PL peptide AA11L, biotinylated]	no binding
Biotin-KKGTYLTDETHREVKFTSL [CD46 (form 1) C-terminal PL peptide AA10L, biotinylated]	no binding

Biological target: T2, GST-TAX43 PDZ domain fusion protein (human tax interaction protein 43 AA15-85; PDZ domain 1 of 1) (human, UniProt P08515 1-218 = GST)
T2 construct: also called TX 43
Test: A/G assays

Binder	binding result
Biotin-PYGTAMEKAQLKPPATSDA [CD49E (alpha-4) C-terminal PL peptide AA11L, biotinylated]	no binding
Biotin-KKGTYLTDETHREVKFTSL [CD46 (form 1) C-terminal PL peptide AA10L, biotinylated]	no binding

Biological target: T3, GST-MPP2 PDZ domain fusion protein (maguk p55 subfamily member 2 (DLG2) AA185-273; PDZ domain 1 of 1) (UniProt P08515 1-218 = GST)
T3 construct: also called MMP2
Test: A/G assays

T3 sequence (P08515 1-218, tags or fused parts left off): as above

Binder	binding result
Biotin-PYGTAMEKAQLKPPATSDA [CD49E (alpha-4) C-terminal PL peptide AA11L, biotinylated]	no binding
Biotin-KKGTYLTDETHREVKFTSL [CD46 (form 1) C-terminal PL peptide AA10L, biotinylated]	no binding

Biological target: T4, GST-CBP PDZ domain fusion protein (Cytohesin binding protein HE AA85-175; PDZ domain 1 of 1) (UniProt P08515 1-218 = GST)
T4 construct: also called Prot
Test: A/G assays

T4 sequence (P08515 1-218, tags or fused parts left off): as above

Binder	binding result
Biotin-PYGTAMEKAQLKPPATSDA [CD49E (alpha-4) C-terminal PL peptide AA11L, biotinylated]	no binding
Biotin-KKGTYLTDETHREVKFTSL [CD46 (form 1) C-terminal PL peptide AA10L, biotinylated]	no binding

Biological target: GST-prIL16 PDZ domain fusion protein (putative interleukin 16 precursor AA170-383; PDZ domains 1-2 of 2) (UniProt P08515 1-218 = GST)
Test: A/G assays

Binder	binding result
Biotin-PYGTAMEKAQLKPPATSDA [CD49E (alpha-4) C-terminal PL peptide AA11L, biotinylated]	no binding
Biotin-KKGTYLTDETHREVKFTSL [CD46 (form 1) C-terminal PL peptide AA10L, biotinylated]	no binding

Biological target: GST-LIMK2 PDZ domain fusion protein (human LIM domain kinase 2 AA185-275; PDZ domain 1 of 1) (human, UniProt P08515 1-218 = GST)
Test: A/G assays

GST-LIMK2 PDZ domain fusion protein (human LIM domain kinase 2 AA185-275; PDZ domain 1 of 1), sequence (P08515 1-218, tags or fused parts left off): as above

Binder	binding result
Biotin-PYGTAMEKAQLKPPATSDA [CD49E (alpha-4) C-terminal PL peptide AA11L, biotinylated]	no binding
Biotin-KKGTYLTDETHREVKFTSL [CD46 (form 1) C-terminal PL peptide AA10L, biotinylated]	no binding

Biological target: GST-TIAM1 PDZ domain fusion protein (T-lymphoma invasion and metastasis inducing protein 1 AA1001-1088); PDZ 1 … (UniProt P08515 1-218 = GST)
Test: A/G assays

GST-TIAM1 PDZ domain fusion protein (T-lymphoma invasion and metastasis inducing protein 1 AA1001-1088); PDZ 1 …, sequence (P08515 1-218, tags or fused parts left off): as above

Binder	binding result
Biotin-PYGTAMEKAQLKPPATSDA [CD49E (alpha-4) C-terminal PL peptide AA11L, biotinylated]	no binding
Biotin-KKGTYLTDETHREVKFTSL [CD46 (form 1) C-terminal PL peptide AA10L, biotinylated]	no binding

Biological target: T5, GST-41.8 kD PDZ domain fusion protein (hypothetical 41.8 kD protein AA4-85; PDZ domain 1 of 1) (UniProt P08515 1-218 = GST)
T5 construct: also called hypoth
Test: A/G assays

T5 sequence (P08515 1-218, tags or fused parts left off): as above

Binder	binding result
Biotin-KKGTYLTDETHREVKFTSL [CD46 (form 1) C-terminal PL peptide AA10L, biotinylated]	no binding

Biological target: GST-DVL1 PDZ domain fusion protein (human dishevelled segment polarity protein homolog AA248-340); PDZ domain … (human, UniProt P08515 1-218 = GST)
Test: A/G assays

GST-DVL1 PDZ domain fusion protein (human dishevelled segment polarity protein homolog AA248-340); PDZ domain …, sequence (P08515 1-218, tags or fused parts left off): as above

Binder	binding result
Biotin-PYGTAMEKAQLKPPATSDA [CD49E (alpha-4) C-terminal PL peptide AA11L, biotinylated]	no binding
Biotin-KKGTYLTDETHREVKFTSL [CD46 (form 1) C-terminal PL peptide AA10L, biotinylated]	no binding

Biological target: T6, GST-CASK PDZ domain fusion protein (CASK AA495-584; PDZ domain 1 of 1) (mouse, UniProt P08515 1-218 = GST)
T6 construct: also called mCASK
Test: A/G assays

T6 sequence (P08515 1-218, tags or fused parts left off): as above

Binder	binding result
Biotin-PYGTAMEKAQLKPPATSDA [CD49E (alpha-4) C-terminal PL peptide AA11L, biotinylated]	no binding
Biotin-KKGTYLTDETHREVKFTSL [CD46 (form 1) C-terminal PL peptide AA10L, biotinylated]	no binding

Biological target: GST-MPP1 PDZ domain fusion protein (55 Kd erythrocyte membrane protein AA101-186; PDZ domain 1 of 1) (UniProt P08515 1-218 = GST)
Test: A/G assays

GST-MPP1 PDZ domain fusion protein (55 Kd erythrocyte membrane protein AA101-186; PDZ domain 1 of 1), sequence (P08515 1-218, tags or fused parts left off): as above

Binder	binding result
Biotin-PYGTAMEKAQLKPPATSDA [CD49E (alpha-4) C-terminal PL peptide AA11L, biotinylated]	no binding
Biotin-KKGTYLTDETHREVKFTSL [CD46 (form 1) C-terminal PL peptide AA10L, biotinylated]	no binding

Biological target: T1, GST-NeDLG PDZ domain fusion protein …
Test: A/G assays

Binder	binding result
Biotin-PYGTAMEKAQLKPPATSDA [CD49E (alpha-4) C-terminal PL peptide AA11L, biotinylated]	no binding

Biological target: GST-NOS1 PDZ domain fusion protein (human neuronal nitric oxide synthase; PDZ domain 1 of 1) (human, UniProt P08515 1-218 = GST)
Test: A/G assays

GST-NOS1 PDZ domain fusion protein (human neuronal nitric oxide synthase; PDZ domain 1 of 1), sequence (P08515 1-218, tags or fused parts left off): as above

Binder	binding result
Biotin-PYGTAMEKAQLKPPATSDA [CD49E (alpha-4) C-terminal PL peptide AA11L, biotinylated]	no binding
Biotin-KKGTYLTDETHREVKFTSL [CD46 (form 1) C-terminal PL peptide AA10L, biotinylated]	no binding

Biological target: T7, GST-TAX2 PDZ domain fusion protein (human tax interaction protein 2 AA54-140; PDZ domain 1 of 1) (human, UniProt P08515 1-218 = GST)
T7 construct: also called TX 2
Test: A/G assays

Binder	binding result
Biotin-PYGTAMEKAQLKPPATSDA [CD49E (alpha-4) C-terminal PL peptide AA11L, biotinylated]	no binding
Biotin-KKGTYLTDETHREVKFTSL [CD46 (form 1) C-terminal PL peptide AA10L, biotinylated]	no binding

Biological target: T8, GST-TAX40 PDZ domain fusion protein (human tax interaction protein 40 AA35-137; PDZ domain 1 of 1) (human, UniProt P08515 1-218 = GST)
T8 construct: also called TX 40
Test: A/G assays

T8 sequence (P08515 1-218, tags or fused parts left off): as above

Binder	binding result
Biotin-PYGTAMEKAQLKPPATSDA [CD49E (alpha-4) C-terminal PL peptide AA11L, biotinylated]	no binding
Biotin-KKGTYLTDETHREVKFTSL [CD46 (form 1) C-terminal PL peptide AA10L, biotinylated]	no binding

Biological target: GST-MINT3 PDZ domain fusion protein (human MINT3 AA11-52; PDZ domain 1 of 1) (human, UniProt P08515 1-218 = GST)
Test: A/G assays

GST-MINT3 PDZ domain fusion protein (human MINT3 AA11-52; PDZ domain 1 of 1), sequence (P08515 1-218, tags or fused parts left off): as above

Binder	binding result
Biotin-PYGTAMEKAQLKPPATSDA [CD49E (alpha-4) C-terminal PL peptide AA11L, biotinylated]	no binding
Biotin-KKGTYLTDETHREVKFTSL [CD46 (form 1) C-terminal PL peptide AA10L, biotinylated]	no binding

Biological target: T9, GST-RGS12 PDZ domain fusion protein (human regulator of G-protein signalling 12 AA35-103; PDZ domain 1 of 1) (human, UniProt P08515 1-218 = GST)
T9 construct: also called RSG12
Test: A/G assays

T9 sequence (P08515 1-218, tags or fused parts left off): as above

Binder	binding result
Biotin-PYGTAMEKAQLKPPATSDA [CD49E (alpha-4) C-terminal PL peptide AA11L, biotinylated]	no binding
Biotin-KKGTYLTDETHREVKFTSL [CD46 (form 1) C-terminal PL peptide AA10L, biotinylated]	no binding

Biological target: T10, GST-TAX33 PDZ domain fusion protein (tax interaction protein 33 AA73-162; PDZ domain 1 of 1) (UniProt P08515 1-218 = GST)
T10 construct: also called TX33
Test: A/G assays

T10 sequence (P08515 1-218, tags or fused parts left off): as above

Binder	binding result
Biotin-PYGTAMEKAQLKPPATSDA [CD49E (alpha-4) C-terminal PL peptide AA11L, biotinylated]	no binding
Biotin-KKGTYLTDETHREVKFTSL [CD46 (form 1) C-terminal PL peptide AA10L, biotinylated]	no binding

Biological target: T11, GST-PSD95 PDZ domain fusion protein (human post-synaptic density protein 95 AA387-724; PDZ domains 1-3 of 3) (human, UniProt P08515 1-218 = GST)
Test: A/G assays

T11 sequence (P08515 1-218, tags or fused parts left off): as above

Binder	binding result
Biotin-PYGTAMEKAQLKPPATSDA [CD49E (alpha-4) C-terminal PL peptide AA11L, biotinylated]	no binding

Biological target: T12, GST-KIAA0316 PDZ domain fusion protein (KIAA0316 AA197-284; PDZ domain 1 of 1) (UniProt P08515 1-218 = GST)
T12 construct: also called K316
Test: A/G assays

T12 sequence (P08515 1-218, tags or fused parts left off): as above

Binder	binding result
Biotin-PYGTAMEKAQLKPPATSDA [CD49E (alpha-4) C-terminal PL peptide AA11L, biotinylated]	no binding
Biotin-KKGTYLTDETHREVKFTSL [CD46 (form 1) C-terminal PL peptide AA10L, biotinylated]	no binding

Biological target: T13, GST-KIAA0303 PDZ domain fusion protein (KIAA0303 AA652-742; PDZ domain 1 of 1) (UniProt P08515 1-218 = GST)
T13 construct: also called K303
Test: A/G assays

T13 sequence (P08515 1-218, tags or fused parts left off): as above

Binder	binding result
Biotin-PYGTAMEKAQLKPPATSDA [CD49E (alpha-4) C-terminal PL peptide AA11L, biotinylated]	no binding
Biotin-KKGTYLTDETHREVKFTSL [CD46 (form 1) C-terminal PL peptide AA10L, biotinylated]	no binding

Biological target: GST-PTN-4 PDZ domain fusion protein (protein-tyrosine phosphatase meg1 AA774-862; PDZ domain 1 of 1) (UniProt P08515 1-218 = GST)
Test: A/G assays

GST-PTN-4 PDZ domain fusion protein (protein-tyrosine phosphatase meg1 AA774-862; PDZ domain 1 of 1), sequence (P08515 1-218, tags or fused parts left off): as above

Binder	binding result
Biotin-PYGTAMEKAQLKPPATSDA [CD49E (alpha-4) C-terminal PL peptide AA11L, biotinylated]	no binding
Biotin-KKGTYLTDETHREVKFTSL [CD46 (form 1) C-terminal PL peptide AA10L, biotinylated]	no binding

Biological target: T14, GST-KIAA0559 PDZ domain fusion protein (KIAA0559 AA766-870; PDZ1 of 1) (UniProt P08515 1-218 = GST)
T14 construct: also called K559
Test: A/G assays

T14 sequence (P08515 1-218, tags or fused parts left off): as above

Binder	binding result
Biotin-PYGTAMEKAQLKPPATSDA [CD49E (alpha-4) C-terminal PL peptide AA11L, biotinylated]	no binding
Biotin-KKGTYLTDETHREVKFTSL [CD46 (form 1) C-terminal PL peptide AA10L, biotinylated]	no binding

Biological target: T15, GST-SYN1a PDZ domain fusion protein (alpha1-syntrophin AA96-189; PDZ domain 1 of 1) (UniProt P08515 1-218 = GST)
T15 construct: also called SYN 1 alpha; SYNTR 1 alpha
Test: A/G assays

T15 sequence (P08515 1-218, tags or fused parts left off): as above

Binder	binding result
Biotin-PYGTAMEKAQLKPPATSDA [CD49E (alpha-4) C-terminal PL peptide AA11L, biotinylated]	no binding
Biotin-KKGTYLTDETHREVKFTSL [CD46 (form 1) C-terminal PL peptide AA10L, biotinylated]	no binding

Biological target: GST-LIM PDZ domain fusion protein (Human LIM protein AA29-112; PDZ domain 1 of 1) (human, UniProt P08515 1-218 = GST)
Test: A/G assays

GST-LIM PDZ domain fusion protein (Human LIM protein AA29-112; PDZ domain 1 of 1), sequence (P08515 1-218, tags or fused parts left off): as above

Binder	binding result
Biotin-PYGTAMEKAQLKPPATSDA [CD49E (alpha-4) C-terminal PL peptide AA11L, biotinylated]	no binding
Biotin-KKGTYLTDETHREVKFTSL [CD46 (form 1) C-terminal PL peptide AA10L, biotinylated]	no binding

Biological target: T5, GST-41.8 kD PDZ domain fusion protein …
Test: A and G assays

Binder	binding result
Biotin-PYGTAMEKAQLKPPATSDA [CD49E (alpha-4) C-terminal PL peptide AA11L, biotinylated]	binds

Biological target: T11, GST-PSD95 PDZ domain fusion protein …
Test: A and G assays

Binder	binding result
Biotin-KKGTYLTDETHREVKFTSL [CD46 (form 1) C-terminal PL peptide AA10L, biotinylated]	binds
